Results on two molecules are retold here after article PMC3283256 (The Journal of Biological Chemistry, 2010).

The test concerns the target His-tagged N-WASP (rat, UniProt O08816 1-501). Put plainly: pull-down.

Chain of His-tagged N-WASP (O08816 whole entry): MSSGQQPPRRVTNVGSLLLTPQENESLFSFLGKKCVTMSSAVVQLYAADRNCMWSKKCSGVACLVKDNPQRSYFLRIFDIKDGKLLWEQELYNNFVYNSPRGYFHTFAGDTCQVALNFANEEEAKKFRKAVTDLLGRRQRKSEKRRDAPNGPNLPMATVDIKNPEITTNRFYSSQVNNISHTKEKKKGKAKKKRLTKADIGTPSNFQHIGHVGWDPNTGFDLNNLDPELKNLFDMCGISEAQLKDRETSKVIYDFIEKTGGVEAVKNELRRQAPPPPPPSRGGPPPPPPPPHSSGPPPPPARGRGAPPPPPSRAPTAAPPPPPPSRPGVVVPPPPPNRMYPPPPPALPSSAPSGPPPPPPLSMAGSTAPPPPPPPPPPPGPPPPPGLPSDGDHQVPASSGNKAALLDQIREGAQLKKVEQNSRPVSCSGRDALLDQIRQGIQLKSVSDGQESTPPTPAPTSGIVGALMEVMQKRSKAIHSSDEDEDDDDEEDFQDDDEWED

B1: GST-Gas7WW2 (domain or fragment, mouse, UniProt Q60780 1-151, looked up)
chain: MATALQKPGMVPPPPGEESQTVILPPGWHSYLSPQGRRYYVNTTTNETTWERPSSSPGISASPAPHRSSLPTTVNGYHASGTPAHPPETAHMSLRKSTGDSQNLGSSSPGRKQSKENTITINCVTFPHPDTMPEQQLLKPTEWSYCDYFWA
Consider B1, for which the binding result is “binds”.

B2: GST-Gas7 (natural protein, mouse, UniProt Q60780 1-421, looked up)
chain: MATALQKPGMVPPPPGEESQTVILPPGWHSYLSPQGRRYYVNTTTNETTWERPSSSPGISASPAPHRSSLPTTVNGYHASGTPAHPPETAHMSLRKSTGDSQNLGSSSPGRKQSKENTITINCVTFPHPDTMPEQQLLKPTEWSYCDYFWADKKDPQGNGTVAGFELLLQKQLKGKQMQKEMSEFIRERIKIEEEYAKNLAKLSQNSLAAQEEGSLGEAWAQVKKSLADEAEVHLKFSAKLHSEVEKPLMNFRENFKKDMKKCDHHIADLRKQLASRYASVEKARKALTERQKDLEMKTQQLEIKLSNKTEEDIKKARRKSTQAGDDLMRCVDLYNQAQSKWFEEMVTTTLELERLEVERVEMIRQHLCQYTQLRHETDMFNQSTVEPVDQLLRKVDPAKDRELWVREHKTGNIRPVDMEI
With B2, the binding result is listed as “binds”.
